The record followed here is patent publication US20110200533A1 (GUERBET, published 2011).

Assay [1] concerns the target T1, recombinant human VCAM-1/Fc chimera (human, UniProt P19320 25-698).
T1 sequence (looked up): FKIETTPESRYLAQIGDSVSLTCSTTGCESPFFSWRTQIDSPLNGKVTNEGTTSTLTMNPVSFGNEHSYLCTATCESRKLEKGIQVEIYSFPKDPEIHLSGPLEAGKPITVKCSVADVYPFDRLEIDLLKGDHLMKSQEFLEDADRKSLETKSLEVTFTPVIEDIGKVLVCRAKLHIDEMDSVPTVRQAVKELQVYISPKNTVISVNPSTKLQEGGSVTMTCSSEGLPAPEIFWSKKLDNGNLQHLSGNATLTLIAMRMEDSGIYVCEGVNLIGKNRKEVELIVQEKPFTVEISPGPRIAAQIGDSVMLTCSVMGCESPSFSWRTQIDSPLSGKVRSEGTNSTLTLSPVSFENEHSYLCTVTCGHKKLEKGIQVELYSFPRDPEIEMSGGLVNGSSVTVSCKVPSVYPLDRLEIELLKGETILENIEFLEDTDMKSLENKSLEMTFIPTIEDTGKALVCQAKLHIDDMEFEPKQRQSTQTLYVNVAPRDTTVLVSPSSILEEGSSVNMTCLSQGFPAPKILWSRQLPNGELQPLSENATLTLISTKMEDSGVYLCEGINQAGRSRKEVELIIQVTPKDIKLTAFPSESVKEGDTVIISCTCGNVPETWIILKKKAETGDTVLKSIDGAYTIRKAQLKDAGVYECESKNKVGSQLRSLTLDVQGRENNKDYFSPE
As to the kind of experiment: cell-based or functional assay.

The target in assay [2] is T1, recombinant human VCAM-1/Fc chimera. As to the kind of experiment: ELISA: peptide immobilized on the plate, VCAM-1/Fc at increasing concentrations (3.9×10^-9-4.9×10^-7 M), detected with a mouse anti-human VCAM-1 mAb; apparent Kd.

Ends that are not written are not given here.

Turning to CNNSKSHTC (not fully specified (bridges); also: cyclic, type of ring bond not given here, also called VCAM PEPTIDE) [cyclic peptide CNNSKSHTC (SEQ ID No. 2)], in assay [1], the “inhibition of cell adhesion (PMA-stimulated Jurkat cells on immobilized VCAM-1), IC50” value stood at 63 µM. In addition, the Kd in assay [2] turned out to be 0.135 µM.
